Tested on: H3K4me peptides / ING4 PHD finger
Experiment: Biotinylated histone peptide pull-down, Western analysis
Assay type: binding
Settings: full-length vs PHD-deleted ING4

B1: ING4ΔPHD: ING4 derivative lacking the PHD finger (aa 1–194) (protein)
chain: MAAGMYLEHYLDSIENLPFELQRNFQLMRDLDQRTEDLKAEIDKLATEYMSSARSLSSEEKLALLKQIQEAYGKCKEFGDDKVQLAMQTYEMVDKHIRRLDTDLARFEADLKEKQIESSDYDSSSSKGKKKGRTQKEKKAARARSKGKNSDEEAPKTAQKKLKLVRTSPEYGMPSVTFGSVHPSDVLDMPVDPN
modifications: left off: GST (inferred from the vector pGEX6P1), end not stated, state not stated
- recognition of methylated H3K4 peptides in pull-down: does not
